{
  "source": "patent US20210260216A1",
  "about": "(OSPEDALE SAN RAFFAELE S R L, published 2021)",
  "target": "p53 (Homo sapiens (Human), UniProt P04637 1-393)",
  "sequence (P04637 whole entry)": "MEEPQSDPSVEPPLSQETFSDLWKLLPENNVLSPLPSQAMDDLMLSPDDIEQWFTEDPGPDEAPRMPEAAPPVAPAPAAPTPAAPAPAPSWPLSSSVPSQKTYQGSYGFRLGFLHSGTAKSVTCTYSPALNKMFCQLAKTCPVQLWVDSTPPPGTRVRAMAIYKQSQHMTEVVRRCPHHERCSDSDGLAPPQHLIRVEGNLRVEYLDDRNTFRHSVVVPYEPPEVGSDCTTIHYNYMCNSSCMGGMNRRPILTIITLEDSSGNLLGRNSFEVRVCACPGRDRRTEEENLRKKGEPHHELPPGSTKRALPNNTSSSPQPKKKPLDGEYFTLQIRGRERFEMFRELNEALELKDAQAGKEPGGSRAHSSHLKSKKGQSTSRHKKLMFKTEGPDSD",
  "assay": "cell-based or functional assay",
  "data": [
    {"binder": "GSE56 (p53 dominant negative peptide) (peptide) peptide: MDGWCPGRDRRTEEENFRKKEEHCPELPPGSAKRALPTSTSSSPQQKKKPLDGEYFTLKIRGRERFEMFRELNEALELKDARAAEESGDSRAHSSYPKIVS", "values": [
      {"measurement": "fold decrease in TaqMan assay of CDKN1A (p21) gene fold expression at 24 hours post-editing", "result": "~3", "unit": "fold"}
    ]}
  ]
}
